Tests used:
Nsp12T;Nsp7;Nsp8 = Nsp12T;Nsp7;Nsp8 (SARS-CoV-2;SARS-CoV-2;SARS-CoV-2, UniProt P0DTD1;P0DTD1;P0DTD1 4393-5324;3860-3942;3943-4140, ||); assay: EMSA
Nsp12A;Nsp7;Nsp8 = Nsp12A;Nsp7;Nsp8 (SARS-CoV-2;SARS-CoV-2;SARS-CoV-2, UniProt P0DTD1;P0DTD1;P0DTD1 4393-5324;3860-3942;3943-4140, ||); assay: EMSA; 2 mM Mg2+; 100 nM RNA

UUUUCAUGCUACGCGUAGUUUUCUACGCG (structured_RNA) [4N RNA hairpin scaffold]
binding result (Nsp12T;Nsp7;Nsp8): binds
binding result (Nsp12A;Nsp7;Nsp8): binds
